Patent publication US5928931A, “Isolation, purification and cloning of retinol dehydratase” (Cornell Research Foundation, Inc., priority 1997, dated 1999)

B1: Recombinant retinol dehydratase: 352 amino acid, 41.5 kDa enzyme of Sf-21 cells, expressed in bacteria with HisTag, SEQ. ID. No. 2 (protein)
chain: MEKQQDLPFPYEFRELNPEDKLVKANLGAFPTTYVKLGPKGYMVYRPYLKDAANIYNMPLRPTDVFVASYQRSGTTMTQELVWLIENDLNFEAAKTYMSLRYIYLDGFMIYDPEKQEEYNDILPNPENLDMERYLGLLEYFSRPGSSLLAAVPPTEKRFVKTHLPLSLMPPNMLDTVKMVYLARDPRDVAVSSFHHARLLYLLNKQSNFKDFWEMFHRGLYTLTPYFEHVKEAWAKRHDPNMLFLFYEDYLKDLPGCIARIADFLGKKLSEEQIQRLCEHLNFEKFKNNGAVNMEDYREIGILADGEHFIRKGKAGCWRDYFDEEMTKQAEKWIKDNLKDTDLRYPNMEL
modifications: His tag
B2: EGF: epidermal growth factor, purchased (protein, UniProt P01133 23-1207, looked up)
Pro-epidermal growth factor: PQHWSCPEGTLAGNGNSTCVGPAPFLIFSHGNSIFRIDTEGTNYEQLVVDAGVSVIMDFHYNEKRIYWVDLERQLLQRVFLNGSRQERVCNIEKNVSGMAINWINEEVIWSNQQEGIITVTDMKGNNSHILLSALKYPANVAVDPVERFIFWSSEVAGSLYRADLDGVGVKALLETSEKITAVSLDVLDKRLFWIQYNREGSNSLICSCDYDGGSVHISKHPTQHNLFAMSLFGDRIFYSTWKMKTIWIANKHTGKDMVRINLHSSFVPLGELKVVHPLAQPKAEDDTWEPEQKLCKLRKGNCSSTVCGQDLQSHLCMCAEGYALSRDRKYCEDVNECAFWNHGCTLGCKNTPGSYYCTCPVGFVLLPDGKRCHQLVSCPRNVSECSHDCVLTSEGPLCFCPEGSVLERDGKTCSGCSSPDNGGCSQLCVPLSPVSWECDCFPGYDLQLDEKSCAASGPQPFLLFANSQDIRHMHFDGTDYGTLLSQQMGMVYALDHDPVENKIYFAHTALKWIERANMDGSQRERLIEEGVDVPEGLAVDWIGRRFYWTDRGKSLIGRSDLNGKRSKIITKENISQPRGIAVHPMAKRLFWTDTGINPRIESSSLQGLGRLVIASSDLIWPSGITIDFLTDKLYWCDAKQSVIEMANLDGSKRRRLTQNDVGHPFAVAVFEDYVWFSDWAMPSVMRVNKRTGKDRVRLQGSMLKPSSLVVVHPLAKPGADPCLYQNGGCEHICKKRLGTAWCSCREGFMKASDGKTCLALDGHQLLAGGEVDLKNQVTPLDILSKTRVSEDNITESQHMLVAEIMVSDQDDCAPVGCSMYARCISEGEDATCQCLKGFAGDGKLCSDIDECEMGVPVCPPASSKCINTEGGYVCRCSEGYQGDGIHCLDIDECQLGEHSCGENASCTNTEGGYTCMCAGRLSEPGLICPDSTPPPHLREDDHHYSVRNSDSECPLSHDGYCLHDGVCMYIEALDKYACNCVVGYIGERCQYRDLKWWELRHAGHGQQQKVIVVAVCVVVLVMLLLLSLWGAHYYRTQKLLSKNPKNPYEESSRDVRSRRPADTEDGMSSCPQPWFVVIKEHQDLKNGGQPVAGEDGQAADGSMQPTSWRQEPQLCGMGTEQGCWIPVSSDKGSCPQVMERSFHMPSYGTQTLEGGVEKPHSLLSANPLWQQRALDPPHQMELTQ
modifications: Pro-epidermal growth factor
notes: epidermal growth factor, purchased

Assays:
retinol dehydratase [1] = molecular target: T1, retinol dehydratase (Spodoptera frugiperda, UniProt Q26490); assay: Retinol dehydratase assay ([3H]-retinol to [3H]-AR, HPLC radiomatic detection); kinetic studies; assay type: biochemical; settings: bacterially expressed recombinant enzyme
T1 sequence (Q26490 1-351): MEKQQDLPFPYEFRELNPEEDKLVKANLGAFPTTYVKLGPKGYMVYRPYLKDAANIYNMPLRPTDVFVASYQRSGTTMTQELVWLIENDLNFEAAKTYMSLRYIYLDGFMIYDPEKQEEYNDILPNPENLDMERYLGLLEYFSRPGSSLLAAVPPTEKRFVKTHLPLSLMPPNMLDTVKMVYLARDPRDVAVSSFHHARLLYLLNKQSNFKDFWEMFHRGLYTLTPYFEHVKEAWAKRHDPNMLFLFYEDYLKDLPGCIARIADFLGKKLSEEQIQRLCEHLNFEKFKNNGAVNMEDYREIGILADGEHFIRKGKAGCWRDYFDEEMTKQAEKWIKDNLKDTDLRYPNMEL
Description: 20-50 μl aliquots of supernatant/column fractions were incubated with 1 μCi of [^3 H]-retinol and 20 μl of high speed supernatant from sonicated Sf-9 cells in 200 μl assay buffer (20 mM Tris.Cl pH 7.5, 150 mM NaCl, I mM MgCI2) for 15-60 minutes at 24° C. […] Samples were delipidated and [^3 H]-AR production quantified by a liquid scintillation radiomatic detector in series with HPLC gradient elution (20 mM Tris pH 7.4/methanol/chloroform) from a C-18 Reverse Phase 201TP54 column (Vydac, Separations Group, Hesperia, Calif.) as described by McClean et al., Clin. Chem., 28:693-96 (1982) and Derguini et al., Angew. Che. Int. Ed. Engl., 33:1839-41 (1994), which are hereby incorporated by reference.
Kinetic studies were performed with native retinol dehydratase (0.1 μg/assay) and ^3 H-retinol in the presence of constant substrate carrier protein concentrations, either delipidated BSA or recombinant cellular retinol binding protein ("CRBP"). The initial rate of AR synthesis at different substrate concentrations was determined by radiomatic detection of ^3 H-AR after HPLC separation.
Carrier protein for retinol (delipidated bovine serum albumin or recombinant human CRBP) was added to reduce nonspecific binding and micelle formation.

retinol dehydratase [2] = molecular target: T1, retinol dehydratase; assay: Fluorimetric titration of recombinant retinol dehydratase with retinol (direct binding, no cofactor); settings: recombinant enzyme; for number of (high affinity) binding sites per molecule: retinol titration
Description: Binding was monitored by following the fluorescence enhancement of retinol (excitation--330 nm; emission--480 nm, open circles). The fluorescence contribution of free retinol was determined by titration with retinol in the absence of protein (open squares), analyzed by linear regression analysis (dashed line) and subtracted from the titration data to give the corrected titration binding curve (closed circles). The data were fitted (solid line) using an equation derived from simple binding theory.
Retinol is an efficient fluorophore and its interactions with proteins are often accompanied by a marked increase in its fluorescence. This phenomenon reflects movement of retinol from the aqueous solution to a less polar and more restrictive environment within a protein binding site, and has been extensively used to monitor the binding of retinol to binding proteins, as described by Cogan et al., Eur. J. Biochem., 65:71-75 (1976); Ong et al., J. Biol Chem., 253:828-32 (1978); and Noy et al., Biochemistry, 30:6380-86 (1991), which are hereby incorporated by reference.
Recombinant retinol dehydratase (lμM) was titrated with retinol from a concentrated solution in ethanol (final ethanol concentration <2.0%). Binding was monitored by following the fluorescence enhancement of retinol (excitation--330 nm; emission--480 nm, open circles). The fluorescence contribution of free retinol was determined by titration with retinol in the absence of protein (FIG. 5B, open squares), analysed by linear regression analysis (FIG. 5B, dashed line) and subtracted from the titration data to give the corrected titration binding curve (FIG. 5B, closed circles). The data were fitted (FIG. 5B, solid line) using an equation derived from simple binding theory as described in Norris et al., Biochim Bioshys Acta, 1209:10-8 (1994), which is hereby incorporated by reference, to yield the number of binding sites (8%) and the equilibrium dissociation constant (Kd =9 nM).
The derived Kd should thus be considered an upper limit for the actual value. Nevertheless, it agreed with the Km, confirming retinol dehydratase has a high affinity binding site for free retinol.

NIH 3T3 cells = assay: Activation of resting serum-starved NIH 3T3 cells ([3H]thymidine incorporation); assay type: cell-based
Description: FIGS. 6A and 6B show the activation of resting NIH 3T3 cells. In FIG. 6(a), one to four day serum-starved cells activated by serum, retinol, 14-HRR, and the peptide growth factors epidermal growth factor ("EGF") and platelet derived growth factor ("PDGF") are shown. […] NIH 3T3 cells were grown to confluence in Dulbecco's minimal essential medium ("DMEM") containing 10% fetal calf serum in 96-well microliter plates. All media were supplemented with 2 mM glutamine and 100 U/ml of penicillin/streptomycin. Cells were washed once with phosphate-buffered saline solution and incubated for one to four days in 200 μl/well of DMEM media/0.1% fetal calf serum ("starvation media"). On the indicated day, starvation media was replaced with 200 μl/well of insulin, transferrin, linoleic acid, bovine serum albumin ("ITLB") media, with or without fetal calf serum, retinoids, or peptide growth factors at the indicated concentrations. ITLB media is RPMI media (Gibco BRL, Grand Island, N.Y.) containing […] bovine serum albumin (1.2 mg/ml), linoleic acid (10^-6 M), bovine insulin (5 μg/ml), and transferrin (5 μg/ml). [^3 H]thymidine (1.2 μCi per well) was added at the beginning of the experiment, and the thymidine incorporation was determined after 24 h. […]
Cells starved for 4 days in DMEM/0.1% fetal calf serum were activated with 5% fetal calf serum, 2 μM retinol, or 2 μM 14-HRR, and the cumulative thymidine incorporation was determined at the indicated time points. Δcpm corresponds to the increase in [^3 H]thymidine incorporation in the two hour period before the time point shown. […]
Cells starved for 4 days in DMEM/0.1% fetal calf serum were activated with 5% fetal calf serum, 2 μM retinol, or 2 μM 14-HRR. […] The cumulative [^3 H]thymidine incorporation was determined after 24 hours. […]
Confluent NIH 3T3 cells were starved for 1 to 4 days in medium containing 0.1% serum. […] Activation was quantitated by measuring the [^3 H] thymidine incorporated into newly synthesized DNA during the subsequent 24 hours (FIG. 6A). […]

| Molecule | Vmax as compared to the native enzyme purified from Sf-21 (retinol dehydratase [1]) [%] | range of binding sites (retinol dehydratase [2]; n=3) | number of (high affinity) binding sites per molecule (retinol dehydratase [2]) [%] | number of (high affinity) binding sites per molecule (retinol dehydratase [2]; listed as recombinant enzyme) [%] | binding sites (retinol dehydratase [2]; titration curves, n=3) | activation of growth arrested cells (thymidine incorporation over 24 hours) (NIH 3T3 cells; cells deprived of serum for 3 or 4 days) | entry of treated cells into the S phase (NIH 3T3 cells; data not shown) | activation of resting cells (NIH 3T3 cells; ≤500 ng/ml) |
| --- | --- | --- | --- | --- | --- | --- | --- | --- |
| B1 | 10 | 0.06-0.08 | 8 | 7 | 0.07 | – | – | – |
| B2 | – | – | – | – | – | had no effect | did not enter the S phase | unable to activate |
